Measured values from patent publication US20030134325A1.

How the values were obtained:
[1] = target: mouse immunoglobulin (MIgG); experiment: photometric; PB-GAM 12 ug/test, BIOMAG-MIgG 30 ug/test
[2] = target: mouse immunoglobulin (MIgG); experiment: photometric; PB-GAM 3 ug/test, soluble MIgG 10 ug/test, BIOMAG-MIgG 100 ug/test
[3] = target: mouse immunoglobulin (MIgG); experiment: photometric; PB-GAM 3 ug/test, soluble MIgG 0, BIOMAG-MIgG 300 ug/test
[4] = target: mouse immunoglobulin (MIgG); experiment: photometric; PB-GAM 3 ug/test, BIOMAG-MIgG 100 ug/test
[5] = target: mouse immunoglobulin (MIgG); experiment: 50 ul conjugate (80 ug/ml) + BIOMAG-MIgG 1 mg/test; soluble MIgG 1 ng/test
[6] = target: mouse immunoglobulin (MIgG); experiment: photometric; PB-GAM 3 ug/test, soluble MIgG 10 ug/test, BIOMAG-MIgG 30 ug/test
[7] = target: mouse immunoglobulin (MIgG); experiment: competitive fluoroimmunoassay; 250 ng conjugate, 250 ug BIOMAG-MIgG per test; soluble MIgG 1,000 ng/test
[8] = target: mouse immunoglobulin (MIgG); experiment: binding to BIOMAG-MIgG, solid phase in pseudo-excess; fluorescence
[9] = target: mouse immunoglobulin (MIgG); experiment: photometric; PB-GAM 40 ug/test, BIOMAG-MIgG 30 ug/test
[10] = target: mouse immunoglobulin (MIgG); experiment: 50 ul conjugate (80 ug/ml) + BIOMAG-MIgG 1 mg/test; soluble MIgG 0
[11] = target: mouse immunoglobulin (MIgG); experiment: photometric; PB-GAM 40 ug/test, soluble MIgG 10 ug/test, BIOMAG-MIgG 100 ug/test
[12] = target: mouse immunoglobulin (MIgG); experiment: photometric; PB-GAM 3 ug/test, BIOMAG-MIgG 300 ug/test
[13] = target: mouse immunoglobulin (MIgG); experiment: photometric; PB-GAM 12 ug/test, BIOMAG-MIgG 100 ug/test
[14] = target: mouse immunoglobulin (MIgG); experiment: competitive fluoroimmunoassay; 250 ng conjugate, 250 ug BIOMAG-MIgG per test; soluble MIgG 10 ng/test
[15] = target: mouse immunoglobulin (MIgG); experiment: photometric; PB-GAM 12 ug/test, soluble MIgG 0, BIOMAG-MIgG 300 ug/test
[16] = target: mouse immunoglobulin (MIgG); experiment: photometric; PB-GAM 40 ug/test, soluble MIgG 0, BIOMAG-MIgG 30 ug/test
[17] = target: mouse immunoglobulin (MIgG); experiment: photometric; PB-GAM 40 ug/test, BIOMAG-MIgG 100 ug/test
[18] = target: mouse immunoglobulin (MIgG); experiment: photometric; PB-GAM 40 ug/test, soluble MIgG 10 ug/test, BIOMAG-MIgG 300 ug/test
[19] = target: rabbit IgG (RIgG); experiment: microtiter displacement assay; conjugate prebound to RIgG-coated wells; MIgG 0 ng/test (baseline)
[20] = target: mouse immunoglobulin (MIgG); experiment: photometric; PB-GAM 40 ug/test, BIOMAG-MIgG 300 ug/test
[21] = target: mouse immunoglobulin (MIgG); experiment: photometric; PB-GAM 12 ug/test, soluble MIgG 10 ug/test, BIOMAG-MIgG 30 ug/test
[22] = target: mouse immunoglobulin (MIgG); experiment: photometric; PB-GAM 12 ug/test, soluble MIgG 0, BIOMAG-MIgG 30 ug/test
[23] = target: mouse immunoglobulin (MIgG); experiment: photometric; PB-GAM 12 ug/test, soluble MIgG 10 ug/test, BIOMAG-MIgG 100 ug/test
[24] = target: mouse immunoglobulin (MIgG); experiment: competitive fluoroimmunoassay; 250 ng conjugate, 250 ug BIOMAG-MIgG per test; soluble MIgG 100 ng/test
[25] = target: mouse immunoglobulin (MIgG); experiment: photometric; PB-GAM 3 ug/test, soluble MIgG 0, BIOMAG-MIgG 30 ug/test
[26] = target: mouse immunoglobulin (MIgG); experiment: photometric; PB-GAM 12 ug/test, soluble MIgG 0, BIOMAG-MIgG 100 ug/test
[27] = target: mouse immunoglobulin (MIgG); experiment: photometric; PB-GAM 40 ug/test, soluble MIgG 0, BIOMAG-MIgG 300 ug/test
[28] = target: mouse immunoglobulin (MIgG); experiment: competitive fluoroimmunoassay; 250 ng conjugate, 250 ug BIOMAG-MIgG per test; soluble MIgG 1 ng/test
[29] = target: mouse immunoglobulin (MIgG); experiment: photometric; PB-GAM 40 ug/test, soluble MIgG 0, BIOMAG-MIgG 100 ug/test
[30] = target: mouse immunoglobulin (MIgG); experiment: competitive fluoroimmunoassay; 250 ng conjugate, 250 ug BIOMAG-MIgG per test; soluble MIgG 0
[31] = target: mouse immunoglobulin (MIgG); experiment: photometric; PB-GAM 12 ug/test, BIOMAG-MIgG 300 ug/test
[32] = target: mouse immunoglobulin (MIgG); experiment: photometric; PB-GAM 3 ug/test, BIOMAG-MIgG 30 ug/test
[33] = target: mouse immunoglobulin (MIgG); experiment: 50 ul conjugate (80 ug/ml) + BIOMAG-MIgG 1 mg/test; soluble MIgG 10 ug/test
[34] = target: mouse immunoglobulin (MIgG); experiment: photometric; PB-GAM 3 ug/test, soluble MIgG 0, BIOMAG-MIgG 100 ug/test
[35] = target: rabbit IgG (RIgG); experiment: displacement assay; conjugate prebound to BIOMAG-RIgG; MIgG 0 ng/test (baseline)
[36] = target: mouse immunoglobulin (MIgG); experiment: photometric; PB-GAM 40 ug/test, soluble MIgG 10 ug/test, BIOMAG-MIgG 30 ug/test
[37] = target: mouse immunoglobulin (MIgG); experiment: photometric; PB-GAM 3 ug/test, soluble MIgG 10 ug/test, BIOMAG-MIgG 300 ug/test
[38] = target: mouse immunoglobulin (MIgG); experiment: photometric; PB-GAM 12 ug/test, soluble MIgG 10 ug/test, BIOMAG-MIgG 300 ug/test
[39] = target: mouse immunoglobulin (MIgG); experiment: binding to BIOMAG-MIgG; fluorescence
[40] = target: phycobilisome-GAM conjugate (glutaraldehyde-stabilized P. cruentum phycobilisomes conjugated to affinity-purified, Fc-specific goat anti-mouse IgG); experiment: displacement of conjugate prebound to BIOMAG-RIgG (competitor RIgG); MIgG 1 ng/test
[41] = target: phycobilisome-GAM conjugate (glutaraldehyde-stabilized P. cruentum phycobilisomes conjugated to affinity-purified, Fc-specific goat anti-mouse IgG); experiment: displacement of conjugate prebound to BIOMAG-RIgG (competitor RIgG); MIgG 100 ng/test
[42] = target: phycobilisome-GAM conjugate (glutaraldehyde-stabilized P. cruentum phycobilisomes conjugated to affinity-purified, Fc-specific goat anti-mouse IgG); experiment: microtiter displacement of conjugate prebound to RIgG-coated wells (competitor RIgG); MIgG 10 ng/test
[43] = target: phycobilisome-GAM conjugate (glutaraldehyde-stabilized P. cruentum phycobilisomes conjugated to affinity-purified, Fc-specific goat anti-mouse IgG); experiment: microtiter displacement of conjugate prebound to RIgG-coated wells (competitor RIgG); MIgG 100 ng/test
[44] = target: phycobilisome-GAM conjugate (glutaraldehyde-stabilized P. cruentum phycobilisomes conjugated to affinity-purified, Fc-specific goat anti-mouse IgG); experiment: microtiter displacement of conjugate prebound to RIgG-coated wells (competitor RIgG); MIgG 1,000 ng/test
[45] = target: phycobilisome-GAM conjugate (glutaraldehyde-stabilized P. cruentum phycobilisomes conjugated to affinity-purified, Fc-specific goat anti-mouse IgG); experiment: displacement of conjugate prebound to BIOMAG-RIgG (competitor RIgG); MIgG 1,000 ng/test
[46] = target: phycobilisome-GAM conjugate (glutaraldehyde-stabilized P. cruentum phycobilisomes conjugated to affinity-purified, Fc-specific goat anti-mouse IgG); experiment: displacement of conjugate prebound to BIOMAG-RIgG (competitor RIgG); MIgG 10 ng/test
[47] = target: phycobilisome-GAM conjugate (glutaraldehyde-stabilized P. cruentum phycobilisomes conjugated to affinity-purified, Fc-specific goat anti-mouse IgG); experiment: microtiter displacement of conjugate prebound to RIgG-coated wells (competitor RIgG); MIgG 1 ng/test
[48] = target: phycobilisome-GAM conjugate (glutaraldehyde-stabilized P. cruentum phycobilisomes conjugated to affinity-purified, Fc-specific goat anti-mouse IgG); experiment: displacement of conjugate prebound to BIOMAG-RIgG (competitor RIgG); MIgG 10,000 ng/test

“phycobilisome-GAM conjugate (glutaraldehyde-stabilized P. cruentum phycobilisomes conjugated to affinity-purified, Fc-specific goat anti-mouse IgG) (antibody)” was tested, and the % binding [1] was 4.5%, the Supernatant Absorbance [2] was 12 mAU/ml and the Supernatant Absorbance [3] was 4 mAU/ml. The % binding [4] was 16.7%, the % bound [5] was 28% and the MIgG inhibition [5] was 547000 cps. It also gave a Supernatant E666 [5] of 2.79e+06 cps, a Supernatant Absorbance [6] of 12 mAU/ml and a % bound [7] of 0%. The E666 [7] was 494000 cps, the inhibition [7] was 120000 cps and the % specific binding [8] was less than 60%. The % binding [9] was 0%, the % bound [10] was 42.1% and the Supernatant E666 [10] was 2.24e+06 cps. For the same substance, the Supernatant Absorbance [11] was 212 mAU/ml, the % binding [12] was 66.7% and the % binding [13] was 20.6%. The % bound [14] was 11.1%, the E666 [14] was 439000 cps and the inhibition [14] was 65000 cps. For the same substance, the Supernatant Absorbance [15] was 44 mAU/ml, the Supernatant Absorbance [16] was 210 mAU/ml and the % binding [17] was 4.7%. The Supernatant Absorbance [18] was 213 mAU/ml, the E666 (fluorescence) [19] was 343000 cps and the % binding [20] was 18.8%. It also gave a Supernatant Absorbance [21] of 66 mAU/ml, a Supernatant Absorbance [22] of 63 mAU/ml and a Supernatant Absorbance [23] of 68 mAU/ml. The % bound [24] was 0.8%, the E666 [24] was 490000 cps and the inhibition [24] was 116000 cps. The Supernatant Absorbance [25] was 12 mAU/ml, the Supernatant Absorbance [26] was 54 mAU/ml and the Supernatant Absorbance [27] was 173 mAU/ml. It also gave a % bound [28] of 19%, an E666 [28] of 400000 cps and an inhibition [28] of 26000 cps. For the same substance, the Supernatant Absorbance [29] was 200 mAU/ml, the % bound [30] was 24.3% and the E666 [30] was 374000 cps. It also gave a % binding [31] of 33.3%, a % binding [32] of 0% and a % bound [33] of 0%. For the same substance, the MIgG inhibition [33] was 1.63e+06 cps, the Supernatant E666 [33] was 3.88e+06 cps and the Supernatant Absorbance [34] was 10 mAU/ml. The E666 (supernatant fluorescence) [35] was 1.05e+06 cps, the Supernatant Absorbance [36] was 210 mAU/ml and the Supernatant Absorbance [37] was 12 mAU/ml. It also gave a Supernatant Absorbance [38] of 66 mAU/ml.
“GAM antibody conjugated by glutaraldehyde to formaldehyde-stabilized phycobilisomes” gave a % specific binding [39] of 60%.
mouse immunoglobulin (MIgG) (antibody) gave a % of maximal displacement [40] of 6.1%, an E666 (supernatant fluorescence) [40] of 1.07e+06 cps and a displacement [40] of 19000 cps. It also gave a % of maximal displacement [41] of 35.3%, an E666 (supernatant fluorescence) [41] of 1.16e+06 cps and a displacement [41] of 109000 cps. It also gave a % of maximal displacement [42] of 73%, an E666 (fluorescence) [42] of 478000 cps and a displacement [42] of 135000 cps. The % of maximal displacement [43] was 98.4%, the E666 (fluorescence) [43] was 525000 cps and the displacement [43] was 182000 cps. The % of maximal displacement [44] was 100%, the E666 (fluorescence) [44] was 528000 cps and the displacement [44] was 185000 cps. The % of maximal displacement [45] was 62.5%, the E666 (supernatant fluorescence) [45] was 1.25e+06 cps and the displacement [45] was 193000 cps. The % of maximal displacement [46] was 10.4%, the E666 (supernatant fluorescence) [46] was 1.08e+06 cps and the displacement [46] was 32000 cps. The % of maximal displacement [47] was 36.8%, the E666 (fluorescence) [47] was 411000 cps and the displacement [47] was 68000 cps. For the same substance, the % of maximal displacement [48] was 100%, the E666 (supernatant fluorescence) [48] was 1.36e+06 cps and the displacement [48] was 309000 cps.
